In this test the target is rat liver chromatin fragments (rat (endogenous in liver)). In words: radioligand binding.

Kd data for three molecules are collected here from publication PMC2120604.

“GST-lamin C tail (residues 389-572) (from UniProt P02545-2 389-572) (domain or fragment)” displayed a Kd of 300 nM.

B1: GST-lamin B1 tail (residues 391-588) (domain or fragment)
chain: LSPSPSSRVTVSRASSSRSVRTTRGKRKRVDVEESEASSSVSISHSASATGNVCIEEIDVDGKFIRLKNTSEQDQPMGGWEMIRKIGDTSVSYKYTSRYVLKAGQTVTVWAANAGVTASPPTDLIWKNQNSWGTGEDVKVILKNSQGEEVAQRSTVFKTTIPEEEEEEEEEPIGVAVEEERFHQQGAPRASNKSCAIM
modifications: 125I-labelled (Iodogen) where used as the radiolabelled ligand
For the molecule B1, the Kd was 120 nM.

B2: GST-lamin B2 tail (residues 382-596) (domain or fragment)
chain: LSPSPSSRITISRATSSSSSSSGVGMSVGQGRGKRRRLETEDTSGSPSRASRVSSGSRLAQQTVATGVVNIDEVDPEGRFVRLKNSSDKDQSLGNWRIKRQVLEGEDIAYKFTPKYVLRAGQTVTVWAAGAGATHSPPSTLVWKSQTNWGPGESFRTALVSADGEEVAVKAAKHSSVQGRENGEEEEEEEAEFGEEDLFHQQGDPRTTSRGCRLM
modifications: 125I-labelled (Iodogen) where used as the radiolabelled ligand
Regarding B2, the Kd was determined as 230 nM.
